Source: article doi:10.1101/2021.02.27.433189
Changes are numbered by the printed parent chain.

B1: ncAA-tagged TARP γ2 S44* with eGFP in the C-tail (natural protein)
chain: MGLFDRGVQMLLTTVGAFAAFSLMTIAVGTDYWLYSRGVCKTKKVSENETSKKNEEVMTHSGLWRTCCLEGNFKGLCKQIDHFPEDADYEADTAEYFLRAVRASSIFPILSVILLFMGGLCIAASEFYKTRHNIILSAGIFFVSAGLSNIIGIIVYISANAGDPSKSDSKKNSYSYGWSFYFGALSFIIAEMVGVLAVHMFIDRHKQLRATARATDYLQASAITRIPSYRYRYQRRSRSSSRSTEPSHSRDASPVGVKGFNTLPSTEISMYTLSRDPLKAATTPTATYNSDRDNSFLQVHNCIQKDSKDSLHANTANRRTTPV
modifications: TCO*A (trans-cyclooct-2-en-L-lysine) at position 44
B2: TARP γ2 with eGFP in the C-tail (natural protein)
chain: B1 chain with K44S
B3: TARP γ8 with eGFP in the C-tail (natural protein)
chain: MESLKRWNEERGLWCEKGVQVLLTTIGAFAAFGLMTIAISTDYWLYTRALICNTTNLTAGDDGPPHRGGSGSSEKKDPGGLTHSGLWRICCLEGLKRGVCVKINHFPEDTDYDHDSAEYLLRVVRASSIFPILSAILLLLGGVCVAASRVYKSKRNIILGAGILFVAAGLSNIIGVIVYISANAGEPGPKRDEEKKNHYSYGWSFYFGGLSFILAEVIGVLAVNIYIERSREAHCQSRSDLLKAGGGAGGSGGSGPSAILRLPSYRFRYRRRSRSSSRGSSEASPSRDASPGGPGGPGFASTDISMYTLSRDPSKGSVAAGLASAGGGGGGAGVGAYGGAAGAAGGGGTGSERDRGSSAGFLTLHNAFPKEAASGVTVTVTGPPAAPAPAPPAPAAPAPGTLSKEAAASNTNTLNRKTTPV
B4: ncAA-tagged TARP γ8 S72* with eGFP in the C-tail (natural protein)
chain: B3 chain with S72K
modifications: TCO*A (trans-cyclooct-2-en-L-lysine) at position 72

These binders were tested against AMPAR subunit GluA1, flip isoform (UniProt P19490).

Compared with B1, B2 is lower in receptor recovery from desensitization, τrec (GluA1 alone 162.6 ms): 62.3 ms for the first, 57.1 ms for the second.

Going from B3 to B4, the receptor recovery from desensitization, τrec (GluA1 alone 162.6 ms) rises from 40.9 ms to 45.8 ms.
